Measurements from paper PMC7154858, “Transcriptional and Biochemical Characterization of Cytosolic Pyruvate Kinases in Arabidopsis thaliana” (Plants, 2020).

T1: cytosolic pyruvate kinase 2 (cPK2, At5g56350) (Arabidopsis thaliana) (UniProt Q9FM97)
T1 sequence: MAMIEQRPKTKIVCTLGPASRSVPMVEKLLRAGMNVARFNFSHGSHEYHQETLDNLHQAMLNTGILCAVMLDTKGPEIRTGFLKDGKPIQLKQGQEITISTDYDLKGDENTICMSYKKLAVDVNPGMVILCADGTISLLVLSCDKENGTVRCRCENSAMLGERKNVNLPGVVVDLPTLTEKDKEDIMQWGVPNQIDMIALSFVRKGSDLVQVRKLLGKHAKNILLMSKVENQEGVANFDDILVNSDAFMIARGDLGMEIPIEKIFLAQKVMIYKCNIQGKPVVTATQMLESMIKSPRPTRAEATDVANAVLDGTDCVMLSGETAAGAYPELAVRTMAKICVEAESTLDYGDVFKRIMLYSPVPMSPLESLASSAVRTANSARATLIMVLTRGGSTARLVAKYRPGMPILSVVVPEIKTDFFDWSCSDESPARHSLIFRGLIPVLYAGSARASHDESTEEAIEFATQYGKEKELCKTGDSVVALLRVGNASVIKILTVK

T2: cytosolic pyruvate kinase 4 (cPK4, At2g36580) (Arabidopsis thaliana) (UniProt Q9SJQ0)
T2 sequence: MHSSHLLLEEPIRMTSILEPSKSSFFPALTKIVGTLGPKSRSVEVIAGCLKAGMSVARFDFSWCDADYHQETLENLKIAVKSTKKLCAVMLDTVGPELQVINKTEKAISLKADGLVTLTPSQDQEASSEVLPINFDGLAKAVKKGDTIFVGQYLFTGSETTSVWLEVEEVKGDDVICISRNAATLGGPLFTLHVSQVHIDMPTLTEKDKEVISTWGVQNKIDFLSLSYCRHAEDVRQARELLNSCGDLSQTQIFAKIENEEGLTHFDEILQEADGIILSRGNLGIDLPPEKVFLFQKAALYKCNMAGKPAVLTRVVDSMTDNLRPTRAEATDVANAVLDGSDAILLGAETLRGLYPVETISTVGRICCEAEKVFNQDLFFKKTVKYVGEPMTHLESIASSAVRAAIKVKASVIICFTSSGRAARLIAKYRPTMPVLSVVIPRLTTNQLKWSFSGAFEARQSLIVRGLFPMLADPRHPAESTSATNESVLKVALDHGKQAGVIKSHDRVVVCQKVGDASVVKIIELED

T3: cPK1 (Arabidopsis thaliana, UniProt Q9FNN1)
T3 construct: gene MAH20.13; full-length cDNA in pET16b, N-terminal His tag (6x in Results, 5x in Methods), E. coli BLR21, Ni-NTA; primer begins MSNIDIEG
T3 sequence (Q9FNN1 1-510): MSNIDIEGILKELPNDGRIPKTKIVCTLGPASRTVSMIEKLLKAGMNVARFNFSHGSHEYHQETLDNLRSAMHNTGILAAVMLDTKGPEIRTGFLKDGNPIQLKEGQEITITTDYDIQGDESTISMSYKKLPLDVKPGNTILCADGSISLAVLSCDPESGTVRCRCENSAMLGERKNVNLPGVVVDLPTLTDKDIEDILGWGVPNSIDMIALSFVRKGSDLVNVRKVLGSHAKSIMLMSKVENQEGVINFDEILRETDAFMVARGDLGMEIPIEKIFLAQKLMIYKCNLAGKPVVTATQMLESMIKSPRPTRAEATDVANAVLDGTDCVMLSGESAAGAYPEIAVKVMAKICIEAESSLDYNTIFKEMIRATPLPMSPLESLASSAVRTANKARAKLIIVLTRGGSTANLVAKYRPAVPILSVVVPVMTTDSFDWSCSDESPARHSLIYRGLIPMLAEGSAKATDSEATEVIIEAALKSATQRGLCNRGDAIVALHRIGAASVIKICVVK

B1: cPK4 (Arabidopsis thaliana) (protein)
chain: T2 sequence
notes: full-length cDNA in pET16b, N-terminal His tag (6x in Results, 5x in Methods), E. coli BLR21, Ni-NTA; primer begins MHSSHL
B2: cPK3 (Arabidopsis thaliana) (protein)
chain: MSNIDIEGILKELPNDGRTPKTKIVCTLGPASRSVTMIEKLLKAGMNVARFNFSHGSHEYHQETLDNLRTAMQNTGILAAVMLDTKGPEIRTGFLKDGNPIQLKEGQEITITTDYDIKGDEKTISMSYKKLPVDVKPGNTILCADGSISLAVVSCDPNAGTVICRCENTAMLGERKNVNLPGVVVDLPTLTDKDVEDILKWGVPNNIDMIALSFVRKGSDLVNVRKVLGSHSKSIMLMSKVENQEGVLNFDEILRETDAFMVARGDLGMEIPIEKIFLAQKMMIYKCNLAGKPVVTATQMLESMIKSPRPTRAEATDVANAVLDGTDCVMLSGESAAGAYPEIAVKTMAKICIEAESSLDYNTIFKEMIRATPLPMSTLESLASSAVRTANKAKAKLIIVLTRGGTTAKLVAKYRPAVPILSVVVPVFTSDTFNWSCSDESPARHSLIYRGLIPVLGEGSAKATDSESTEEIIESALKSATEKGLCNHGDAVVALHRIGAASVIKICVVK
notes: printed locus At5g56350 duplicates cPK2 (apparent misprint); primer begins MSNIDIE, unlike cPK2; full-length cDNA in pET16b, N-terminal His tag (6x/5x), E. coli BLR21, Ni-NTA
B3: cPK2 (Arabidopsis thaliana) (protein)
chain: T1 sequence
notes: full-length cDNA in pET16b, N-terminal His tag (6x in Results, 5x in Methods), E. coli BLR21, Ni-NTA; primer begins MAMIEQ
B4: cytosolic pyruvate kinase 1 (cPK1, At5g08570) (enzyme)
chain: T3 sequence (Q9FNN1 1-510)
B5: cPK1 (Arabidopsis thaliana) (protein)
chain: T3 sequence (Q9FNN1 1-510)
notes: full-length cDNA in pET16b, N-terminal His tag (6x in Results, 5x in Methods), E. coli BLR21, Ni-NTA; primer begins MSNIDIEG
B6: cytosolic pyruvate kinase 5 (cPK5, At3g52990) (enzyme)
chain: MHSSHLLLEEPIRMASILEPSKSSFFPALTKIVGTLGPKSRSVEALSGCLKAGMSVARFDFSWGDADYHQETLDNLKVAVRSTKKLCAVMLDTVGPELQVINKSEKAITLKADGLVTLTPNQDQEASSEVLPINFNGLAKAVKKGDTIFVGQYLFTGSETTSVWLEVDEVKGDDVICLSRNAATLAGSLFTLHSSQVHIDLPTLTEKDKEVISTWGVQNKIDFLSLSYCRHAEDVRQTREMLKKLGDLSQTQIFAKIENVEGLTHFDEILQEADGIILSRGNLGIDLPPEKVFLFQKAALYKCNMAGKPAVLTRVVDSMTDNLRPTRAEATDVANAVLDGSDAILLGAETLRGLYPVETISTVGRICAEAEKVFNQDLYFKKTVKYVGEPMTHLESIASSAVRAAIKVKASVIICFTSSGRAARLIAKYRPTMPVISVVIPRVKTNQLKWSFSGAFEARQSLIVRGLFPMLADPRHPAESTSATNESVLKVALDHGKHAGVIKSHDRVVVCQKVGDASVVKIIELED
B7: cPK5 (Arabidopsis thaliana) (protein)
chain: B6 chain
notes: as for B1

Tests used:
[1] = target: T1, cytosolic pyruvate kinase 2 (cPK2, At5g56350) (Arabidopsis thaliana)
[2] = target: T2, cytosolic pyruvate kinase 4 (cPK4, At2g36580) (Arabidopsis thaliana)
cPK1 [3] = target: T3, cPK1; experiment: LDH-coupled assay, single effector concentration; format: biochemical; settings: 1000 µM; saturating ADP and PEP; 10 mM MgCl2, pH 7.5, 25 °C; activator
cPK1 [4] = target: T3, cPK1; experiment: LDH-coupled assay, single effector concentration; format: biochemical; settings: 200 µM; saturating ADP and PEP; 10 mM MgCl2, pH 7.5, 25 °C; inhibitor
purified protein [5] = substrate: C=C(OP(=O)(O)O)C(=O)O; experiment: purified protein; format: biochemical, Arabidopsis thaliana; settings: co-substrate ADP, 10 mM MgCl2, 50 mM KCl, 5% PEG 200, pH 7.5, 25 °C
purified protein [6] = substrate: Nc1ncnc2c1ncn2[C@@H]1O[C@H](COP(=O)(O)OP(=O)(O)O)[C@@H](O)[C@H]1O; experiment: purified protein; format: biochemical, Arabidopsis thaliana; settings: co-substrate PEP, 10 mM MgCl2, 50 mM KCl, 5% PEG 200, pH 7.5, 25 °C

Molecule | Km (purified protein [5]) [mM] | kcat (purified protein [5]) [s⁻¹] | Km (purified protein [6]) [mM] | kcat (purified protein [6]) [s⁻¹] | also measured
cytosolic pyruvate kinase 3 (cPK3) (from UniProt Q9FFP6 1-510) (enzyme) |  |  |  |  | specific pyruvate kinase activity (LDH-coupled assay, substrate saturating conditions) of a mixture of equal ratios of cPK2 and cPK3, compared to the single enzymes [1]: 20 % increase; specific pyruvate kinase activity (LDH-coupled assay, substrate saturating conditions) of a mixture of equal ratios of cPK4 and cPK3, compared to the single enzymes [2]: 20 % increase
O=P(O)(O)OC[C@H]1OC(O)(COP(=O)(O)O)[C@@H](O)[C@@H]1O (stereo partly drawn) [F1.6BP] |  |  |  |  | F1.6BP (cPK1 [3]): 122%
N[C@@H](CC(=O)O)C(=O)O [aspartate] |  |  |  |  | Aspartate (cPK1 [4]): 69%
B1 | 0.17 | 4.0 | 0.07 | 4.0 | 
B2 | 0.17 | 2.4 | 0.14 | 2.4 | 
B3 | 0.76 | 3.05 | 0.03 | 3.05 | 
B4 |  |  |  |  | specific pyruvate kinase activity (LDH-coupled assay, substrate saturating conditions) of a mixture of equal ratios of cPK1 and cPK2, compared to cPK2 alone [1]: 70 % increase; specific pyruvate kinase activity (LDH-coupled assay, substrate saturating conditions) of a mixture of equal ratios of cPK1 and cPK4, normalised to cPK4 alone [2]: 75 % increase
B5 | 0.06 | 1.53 | 0.15 | 1.53 | 
B6 |  |  |  |  | specific pyruvate kinase activity (LDH-coupled assay, substrate saturating conditions) of a batch with equal ratios of cPK4 and cPK5, compared to cPK4 alone [2]: 180 % increase
B7 | 0.05 | 6.68 | 0.34 | 6.68 | 
